From publication PMC8586334, “Distinct RPA domains promote recruitment and the helicase-nuclease activities of Dna2” (Nature Communications, 2021)

Target: Rfa1-AB-Y193D (S. cerevisiae)
Test: cell-based or functional assay

B1: S. cerevisiae Dna2-E675A (nuclease-dead) (enzyme, UniProt P38859 1-1522, looked up)
chain: MPGTPQKNKRSASISVSPAKKTEEKEIIQNDSKAILSKQTKRKKKYAFAPINNLNGKNTKVSNASVLKSIAVSQVRNTSRTKDINKAVSKSVKQLPNSQVKPKREMSNLSRHHDFTQDEDGPMEEVIWKYSPLQRDMSDKTTSAAEYSDDYEDVQNPSSTPIVPNRLKTVLSFTNIQVPNADVNQLIQENGNEQVRPKPAEISTRESLRNIDDILDDIEGDLTIKPTITKFSDLPSSPIKAPNVEKKAEVNAEEVDKMDSTGDSNDGDDSLIDILTQKYVEKRKSESQITIQGNTNQKSGAQESCGKNDNTKSRGEIEDHENVDNQAKTGNAFYENEEDSNCQRIKKNEKIEYNSSDEFSDDSLIELLNETQTQVEPNTIEQDLDKVEKMVSDDLRIATDSTLSAYALRAKSGAPRDGVVRLVIVSLRSVELPKIGTQKILECIDGKGEQSSVVVRHPWVYLEFEVGDVIHIIEGKNIENKRLLSDDKNPKTQLANDNLLVLNPDVLFSATSVGSSVGCLRRSILQMQFQDPRGEPSLVMTLGNIVHELLQDSIKYKLSHNKISMEIIIQKLDSLLETYSFSIIICNEEIQYVKELVMKEHAENILYFVNKFVSKSNYGCYTSISGTRRTQPISISNVIDIEENIWSPIYGLKGFLDATVEANVENNKKHIVPLAVKTGKSRSVSYEVQGLIYTLLLNDRYEIPIEFFLLYFTRDKNMTKFPSVLHSIKHILMSRNRMSMNFKHQLQEVFGQAQSRFELPPLLRDSSCDSCFIKESCMVLNKLLEDGTPEESGLVEGEFEILTNHLSQNLANYKEFFTKYNDLITKEESSITCVNKELFLLDGSTRESRSGRCLSGLVVSEVVEHEKTEGAYIYCFSRRRNDNNSQSMLSSQIAANDFVIISDEEGHFCLCQGRVQFINPAKIGISVKRKLLNNRLLDKEKGVTTIQSVVESELEQSSLIATQNLVTYRIDKNDIQQSLSLARFNLLSLFLPAVSPGVDIVDERSKLCRKTKRSDGGNEILRSLLVDNRAPKFRDANDDPVIPYKLSKDTTLNLNQKEAIDKVMRAEDYALILGMPGTGKTTVIAEIIKILVSEGKRVLLTSYTHSAVDNILIKLRNTNISIMRLGMKHKVHPDTQKYVPNYASVKSYNDYLSKINSTSVVATTCLGINDILFTLNEKDFDYVILDEASQISMPVALGPLRYGNRFIMVGDHYQLPPLVKNDAARLGGLEESLFKTFCEKHPESVAELTLQYRMCGDIVTLSNFLIYDNKLKCGNNEVFAQSLELPMPEALSRYRNESANSKQWLEDILEPTRKVVFLNYDNCPDIIEQSEKDNITNHGEAELTLQCVEGMLLSGVPCEDIGVMTLYRAQLRLLKKIFNKNVYDGLEILTADQFQGRDKKCIIISMVRRNSQLNGGALLKELRRVNVAMTRAKSKLIIIGSKSTIGSVPEIKSFVNLLEERNWVYTMCKDALYKYKFPDRSNAIDEARKGCGKRTGAKPITSKSKFVSDKPIIKEILQEYES
unwinding of 2.2-kbp-long dsDNA by Dna2-E675A, stimulation by the Rfa1-AB variant, against wild type Rfa1-AB: ~2.5 fold less efficient
